# From article PMC4587339 (Journal of molecular biology, 2015)
# Several values for one entry are separate records, joined by “and”; a condition that tells them apart may be missing. Identical values can stand only once.
# T1: full length L-terminase of bacteriophage P22, purified alone for the pull-down (bacteriophage P22, UniProt P26745 1-499)
# T1 sequence (looked up): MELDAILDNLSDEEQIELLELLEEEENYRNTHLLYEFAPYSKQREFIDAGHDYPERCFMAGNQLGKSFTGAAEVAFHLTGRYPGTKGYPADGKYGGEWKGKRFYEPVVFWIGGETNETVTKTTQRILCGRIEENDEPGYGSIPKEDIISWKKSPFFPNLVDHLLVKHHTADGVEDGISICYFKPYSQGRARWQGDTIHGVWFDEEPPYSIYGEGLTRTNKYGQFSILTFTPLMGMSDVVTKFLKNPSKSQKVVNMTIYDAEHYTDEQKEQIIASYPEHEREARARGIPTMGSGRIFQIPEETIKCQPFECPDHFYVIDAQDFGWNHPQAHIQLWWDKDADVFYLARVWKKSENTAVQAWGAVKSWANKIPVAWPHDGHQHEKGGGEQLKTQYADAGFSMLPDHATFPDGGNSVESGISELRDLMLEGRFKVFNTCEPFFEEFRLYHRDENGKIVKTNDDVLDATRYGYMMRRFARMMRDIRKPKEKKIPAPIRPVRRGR
# T2: L-terminase ATPase domain of bacteriophage P22 (residues 1-287) (bacteriophage P22, UniProt P26745 1-287)
# T2 sequence (looked up): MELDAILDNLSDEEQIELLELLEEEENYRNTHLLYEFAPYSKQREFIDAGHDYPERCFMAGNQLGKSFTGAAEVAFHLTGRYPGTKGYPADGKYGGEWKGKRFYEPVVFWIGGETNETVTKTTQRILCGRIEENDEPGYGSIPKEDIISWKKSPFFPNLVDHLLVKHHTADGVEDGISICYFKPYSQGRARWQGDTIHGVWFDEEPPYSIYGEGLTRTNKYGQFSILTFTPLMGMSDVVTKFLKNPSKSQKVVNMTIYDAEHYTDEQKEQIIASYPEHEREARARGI
# T3: S-terminase (small terminase subunit) of bacteriophage P22, full length, MBP cleaved off (bacteriophage P22, UniProt P04893 1-162)
# T3 sequence (looked up): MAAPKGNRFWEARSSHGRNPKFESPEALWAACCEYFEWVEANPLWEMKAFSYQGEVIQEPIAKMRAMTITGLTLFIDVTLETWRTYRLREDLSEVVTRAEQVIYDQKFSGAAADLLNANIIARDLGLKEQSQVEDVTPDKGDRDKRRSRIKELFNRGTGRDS
# T4: MBP-tagged L-terminase Binding Domain of P22 S-terminase (residues 140-162) (bacteriophage P22, UniProt P04893 140-162)
# T4 chain (looked up): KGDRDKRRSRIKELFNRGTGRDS
# How the values were obtained:
# [1] = target: T1, full length L-terminase of …; assay: pull-down
# [2] = target: T2, L-terminase ATPase domain of …; assay: pull-down
# [3] = target: T3, S-terminase (small terminase subunit) …; assay: native MS
# [4] = target: T4, MBP-tagged L-terminase Binding Domain …; assay: AUC
Binder,binding result [1],binding result [2],stoichiometry N [3],stoichiometry N [4]
"KGDRDKRRSRIKELFNRGTGRDS (domain or fragment, bacteriophage P22, UniProt P04893 140-162, looked up) [GST-tagged L-terminase Binding Domain of P22 S-terminase (residues 140-162)]",binds,binds,,
"L-terminase (large terminase subunit) of bacteriophage P22, full length, co-expressed (enzyme, UniProt P26745 1-499, looked up) MELDAILDNLSDEEQIELLELLEEEENYRNTHLLYEFAPYSKQREFIDAGHDYPERCFMAGNQLGKSFTGAAEVAFHLTGRYPGTKGYPADGKYGGEWKGKRFYEPVVFWIGGETNETVTKTTQRILCGRIEENDEPGYGSIPKEDIISWKKSPFFPNLVDHLLVKHHTADGVEDGISICYFKPYSQGRARWQGDTIHGVWFDEEPPYSIYGEGLTRTNKYGQFSILTFTPLMGMSDVVTKFLKNPSKSQKVVNMTIYDAEHYTDEQKEQIIASYPEHEREARARGIPTMGSGRIFQIPEETIKCQPFECPDHFYVIDAQDFGWNHPQAHIQLWWDKDADVFYLARVWKKSENTAVQAWGAVKSWANKIPVAWPHDGHQHEKGGGEQLKTQYADAGFSMLPDHATFPDGGNSVESGISELRDLMLEGRFKVFNTCEPFFEEFRLYHRDENGKIVKTNDDVLDATRYGYMMRRFARMMRDIRKPKEKKIPAPIRPVRRGR",,,1 L-terminase per S-terminase nonamer and 2 L-terminase per S-terminase nonamer and 3 L-terminase per S-terminase nonamer,1 L-terminase per MBP-LBD
